Source: PMC6488372 (Molecular microbiology, 2019)

Target: E. coli His-α ΔCTD (His-α Δ235, α 1–234) (E. coli, UniProt P0A7Z4 1-234)
Assay: BLI

B1: LuxR (native, wild-type), purified (natural protein)
chain: MDSIAKRPRTRLSPLKRKQQLMEIALEVFARRGIGRGGHADIAEIAQVSVATVFNYFPTREDLVDEVLNHVVRQFSNFLSDNIDLDIHARENIANITNAMIELVSQDCHWLKVWFEWSASTRDEVWPLFVTTNRTNQLLVQNMFIKAIERGEVCDQHEPEHLANLFHGICYSIFVQANRSKSEAELTNLVSAYLDMLCIYNREHH
In the case of B1, the Kd is reported as 256 nM.
